In test [1] the target is T1, rHuman IGF-1 sR (IGF-1 sR), CF (R&D Systems Cat#391-GR) (human, UniProt P08069 31-932).
T1 construct: Purchased soluble receptor; also called insulin-like growth factor-1 soluble receptor; IGF-R1
Kind of test: MSD ECL multi-spot plate, antigen immobilized; Fab 1.6 nM; blank spot 565.

Test [2] addresses T2, rHuman P-Cadherin/Fc Chimera, CF (R&D Systems Cat#861-PC) (human, UniProt P22223 108-654).
T2 construct: Purchased Fc chimera; not shown: Fc portion of the purchased chimera
The description is as above.

Test [3] addresses T3, rHuman Erythropoietin R/Fc Chimera, CF (R&D Systems Cat#963-ER) (human, UniProt P19235 25-250).
T3 construct: Purchased Fc chimera; also called EPO R/Fc; Epo R; not shown: Fc portion of the purchased chimera
T3 sequence: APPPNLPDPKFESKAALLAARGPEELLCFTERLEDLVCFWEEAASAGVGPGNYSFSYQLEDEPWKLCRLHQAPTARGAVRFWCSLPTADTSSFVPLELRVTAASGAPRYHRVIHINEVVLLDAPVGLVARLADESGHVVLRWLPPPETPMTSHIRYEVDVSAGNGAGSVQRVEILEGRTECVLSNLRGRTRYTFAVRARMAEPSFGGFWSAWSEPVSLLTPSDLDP
The test is described as above.

Test [4] has as its target T4, Recombinant Human DLL4 (R&D Systems Cat#1506-D4/CF) (human, UniProt Q9NR61 27-524).
T4 construct: Purchased recombinant protein; also called delta-like protein 4
Described as above.

Test [5] deals with T5, rHuman ErbB2/Fc Chimera, CF (R&D Systems Cat#1129-ER) (human, UniProt P04626 23-652).
T5 construct: Purchased Fc chimera; also called HER2/neu; not shown: Fc portion of the purchased chimera
The description is as above.

Test [6] has as its target T6, rHuman EGF R/Fc Chimera, CF (R&D Systems Cat#344-ER) (human, UniProt P00533 25-645).
T6 construct: Purchased Fc chimera; not shown: Fc portion of the purchased chimera
The description is as above.

Test [7] deals with T7, rHuman HGF R/c-MET/Fc Chimera, CF (R&D Systems Cat#358-MT/CF) (human, UniProt P08581 25-932).
T7 construct: Purchased Fc chimera; also called HGF R/Fc; not shown: Fc portion of the purchased chimera
Described as above.

Test [8] deals with T8, rHuman Notch-1/Fc Chimera, CF (R&D Systems Cat#3647-TK) (human, UniProt P46531 19-526).
T8 construct: Purchased Fc chimera; not shown: Fc portion of the purchased chimera
The test is described as above.

The target in test [9] is T9, rHuman CD44/Fc Chimera, CF (R&D Systems Cat#3660-CD) (human, UniProt P16070 21-220).
T9 construct: Purchased Fc chimera; not shown: Fc portion of the purchased chimera
The test is described as above.

Test [10] concerns the target T10, rHuman Erythropoietin R/Fc Chimera, CF (R&D Systems Cat#963-ER) (human, UniProt P19235 25-250).
T10 construct: Bought Fc chimera; also called EPO R/Fc; Epo R; Fc part of the bought chimera not given
T10 sequence: T3 sequence
In words: ECL (MSD Multi-Spot) binding assay, antigen spotted on plate; Fab 7.5 nM; blank spot 217.

In test [11] the target is T11, Recombinant Human DLL4 (R&D Systems Cat#1506-D4/CF) (human, UniProt Q9NR61 27-524).
T11 construct: Bought recombinant protein; also called delta-like protein 4; rHuman DLL4
Described as above.

In test [12] the target is T12, rHuman Notch-1/Fc Chimera, CF (R&D Systems Cat#3647-TK) (human, UniProt P46531 19-526).
T12 construct: Bought Fc chimera; Fc part of the bought chimera not given
Described as above.

The target in test [13] is T13, rHuman CD44/Fc Chimera, CF (R&D Systems Cat#3660-CD) (human, UniProt P16070 21-220).
T13 construct: Bought Fc chimera; Fc part of the bought chimera not given
Described as above.

Test [14] concerns the target T14, rHuman P-Cadherin/Fc Chimera, CF (R&D Systems Cat#861-PC) (human, UniProt P22223 108-654).
T14 construct: Bought Fc chimera; also called CDH3; Fc part of the bought chimera not given
The description is as above.

The target of test [15] is T15, rHuman ErbB2/Fc Chimera, CF (R&D Systems Cat#1129-ER) (human, UniProt P04626 23-652).
T15 construct: Bought reagent; also called HER2/neu; human epidermal growth factor 2 receptor; Fc part of the bought chimera not given
In words: ECL (MSD multi-spot), antigen spotted on plate; Fab 22 nM; blank spot 289.

Test [16] addresses T16, rHuman EGF R/Fc Chimera, CF (R&D Systems Cat#344-ER) (human, UniProt P00533 25-645).
T16 construct: Bought reagent; also called epidermal growth factor receptor; Fc part of the bought chimera not given
The test is described as above.

In test [17] the target is T17, rHuman Notch-1/Fc Chimera, CF (R&D Systems Cat#3647-TK) (human, UniProt P46531 19-526).
T17 construct: Bought reagent; Fc part of the bought chimera not given
The test is described as above.

Test [18] addresses T18, rHuman IGF-1 sR (IGF-1 sR), CF (R&D Systems Cat#391-GR) (human, UniProt P08069 31-932).
T18 construct: Bought soluble receptor; also called insulin-like growth factor-1 soluble receptor; IGF-R1
The description is as above.
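Further: blank spot per well as comparator with Hit at signal to blank ratio of 4 or more.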

B1: Fab VH5-51_IGHD5-18*01>3_IGHJ4*01_G100K & V3-4_IGLJ1*01 (Fab, V domains shown)
VH: EVQLVQSGAEVKKPGESLKISCKGSGYSFTSYWIGWVRQMPGKGLEWMGIIYPGDSDTRYSPSFQGQVTISADKSISTAYLQWSSLKASDTAMYYCARRKYSYGYDYFDYWGQGTLVTVSS
VL: QTVVTQEPSFSVSPGGTVTLTCGLSSGSVSTSYYPSWYQQTPGQAPRTLIYSTNTRSSGVPDRFSGSILGNKAALTITGAQADDESDYYCVLYMGSGISYVFGTGTKVTVL
notes: It was expressed as a Fab: CH1 with tags from Plasmid A and lambda CL from Plasmid E; also called Fab No. 22
As to B1, the ECL signal was determined as 1440 ECL signal in [1]; 811 ECL signal in test [2]; 899 ECL signal in [3]; 2420 ECL signal in [4]; 1320 ECL signal in test [5]; 1180 ECL signal in test [6]. Besides, the ECL signal came to 1440 ECL signal in test [7], 816 ECL signal in test [8] and 938 ECL signal in test [9].

B2: Fab VH6-1_IGHD3-3*01_IGHJ4*01 & V4-3_IGLJ4*01 (Fab, V domains shown)
VH: QVQLQQSGPGLVKPSQTLSLTCAISGDSVSSNSAAWNWIRQSPSRGLEWLGRTYYRSKWYNDYAVSVKSRITINPDTSKNQFSLQLNSVTPEDTAVYYCAREYYDFWSGYYTDYFDYWGQGTLVTVSS
VL: QPVLTQPTSLSASPGASARLTCTLRSGINLGSYRIFWYQQKPESPPRYLLSYYSDSSKHQGSGVPSRFSGSKDASSNAGILVISGLQSEDEADYYCMIWHSSASFVFGGGTQLIIL
notes: Tested as a Fab made in E. coli; also called IGHV6-1*01
Consider B2, for which the ECL signal in test [10] was determined as 443; in [11], 598; in [12] it was 392; in test [13], 444; in test [14], 352.

B3: Fab VH1-46_IGHD3-10*01_IGHJ4*01 & B3_IGKJ1*01 (Fab, V domains shown)
VH: QVQLVQSGAEVKKPGASVKVSCKASGYTFTSYYMHWVRQAPGQGLEWMGIINPSGGSTSYAQKFQGRVTMTRDTSTSTVYMELSSLRSEDTAVYYCAREYYYGSGSYYNDYFDYWGQGTLVTVSS
VL: not shown
notes: also called IGHV1-46*01
B3: the ECL signal was determined as 363 in [15], 312 in test [16], 389 in [17] and 347 in test [18].

The values are drawn from patent US20120058906A1 (published 2012).
